B1: rec α1AT Fraction 52 (protein)
chain: EDPQGDAAQKTDTSHHDQDHPTFNKITPNLAEFAFSLYRQLAHQSNSTNIFFSPVSIATAFAMLSLGTKADTHDEILEGLNFNLTEIPEAQIHEGFQELLRTLNQPDSQLQLTTGNGLFLSEGLKLVDKFLEDVKKLYHSEAFTVNFGDTEEAKKQINDYVEKGTQGKIVDLVKELDRDTVFALVNYIFFKGKWERPFEVKDATEEEDFHVDQVTTVKVPMMKRLGMFNIQHCKKLSSWVLLMKYLGNATAIFFLPDEGKLQHLENELTHDIITKFLENEDRRSASLHLPKLSITGTYDLKSVLGQLGITKVFSNGADLSGVTEEAPLKLSKAVHKAVLTIDEKGTEAAGAMFLEAIPMSIPPEVKFNKPFVFLMIEQNTKSPLFMGKVVNPTQK
B2: rhAAT (protein)
chain: B1 chain
B3: rec α1AT Fraction 53 (protein)
chain: B1 chain

System: lentiviral pseudoparticles harbouring the SARS-CoV-2 spike protein of Wuhan Hu-1 isolate
Type: cell-based

Molecule	IC50 of inhibiting pseudoparticle entry into Caco2 cells	estimated IC90	pseudoparticle entry	inhibition of pseudoparticle entry compared to Prolastin	inhibition of the entry of SARS-CoV-2	inhibition of pseudoparticle entry	activity in the pseudoparticle assay compared to Prolastin
Prolastin	3.16 mg/mL	20 mg/mL	about 10%	–	–	–	–
B1	–	–	–	greater inhibition	inhibit the entry of SARS-CoV-2 similar to Prolastin	–	–
B2	–	8 mg/mL	–	–	–	complete inhibition	–
B3	–	–	–	greater inhibition	inhibit the entry of SARS-CoV-2 similar to Prolastin	–	greater activity

— patent US20250057927A1, “ALPHA-1 A[…] FROM YEAST FOR USE IN THE TREATMENT OF VIRAL INFECTIONS” (priority 2021, published 2025)
